Measurements taken from US20030157533A1, “Nucleic acid labeling by Thermoanaerobacter thermohydrosulfuricus DNA polymerase I variants” (priority 2001, published 2003).

Key:
Format in all cases: biochemical
[1] = tested on: human skeletal muscle mRNA; test: cDNA labeling using Cy3/Cy5-dCTP over a wide reaction temperature range, microarray (FIGS. 14a and b); conditions: reaction temperatures 37, 42, 45, 50, 55, 60 and 65 degrees; normalization factor of 2
Procedure: A 20 μl reaction Cy3 or Cy5 reaction had 1 μg of human skeletal muscle mRNA, oligo dT(25) and random nonamer primers and TtsFYDR polymerase enzyme in 1×reaction buffer (50 mM Tris, pH 8.0, 1 mM DDT, 40 mM KC, 100 uM dA,G and TTP and 50 um each of CTP and Cy3-dCTP or Cy5-dCTP depending on the reaction). Control mRNAs (APBiotech Inc.) of known sequence compositions were included in various concentrations to serve as dynamic range and gene expression ratio controls. Tts reactions were carried out at temperatures from 37, 42, 45, 50, 55, 60 and 65 degrees. For Superscript II, cDNA synthesis reactions were carried out at 42 C. (Life Technologies). Template RNA was hydrolyzed by alkali treatment and neutralized with HEPES.
Probes were purified using MultiScreen filters (Millipore) and quantified by spectrophotometry. Glass slides containing human cDNA gene targets were hybridized with equal amounts (30 pmol each) of Cy3 and Cy5 labeled cDNA probes. Slides were scanned using a GenePix® (Axon) scanner and quantified using ImageQuant software. A normalization factor of 2 (due to differences in the excitation efficiencies of Cy3 and Cy5) was applied to the observed ratio of raw flourescence signal. The figure illustrates precise determination of gene expression differences in Cy3 and Cy5 reactions.

[2] = tested on: Globin mRNA template annealed to P-33 labeled primer; test: Single nucleotide incorporation of Cy3.5-dCTP or dCTP on RNA template (reverse transcriptase reaction, FIG. 7)
Procedure: The experiment shown in FIG. 7 investigates the relative efficiencies of incorporation of dye-CTP (Cy3.5-dCTP) and dCTP. Three enzyme preparations ΔTts, ΔTts F412Y, ΔTtsF412YD426R were analyzed in this experiment.
(§1) Optimized 1×buffer compositions for Reverse Transcriptase (RNA dependent DNA Polymerase) and DNA Polymerase (DNA dependent DNA polymerase) reactions for all variants of Tts Pol I are as follows. Tris, pH 8.0 (50 mM), KCl (40 mM), MgCl2 (3 mM), DTT (1 mM), DNA or RNA template (as needed), primer (5 to 50 femto mols), enzyme 0.5 to 1 units, dNTP or dNTP analog (varying concentrations as needed). In standard synthesis reactions, when full-length synthesis is monitored, 50 uM of all 4 dNTPs are included. Typical reaction volume is 10 ul. Reaction temperature was kept between 37-60 C. depending on the experimental needs. Reaction time was limited to 10 minutes for single nucleotide incorporation studies. Time was varied as needed for the purpose of the experiments, sometimes up to 1 hour if longer extensions are monitored.
The experiment shown in FIG. 7 investigates the relative efficiencies of incorporation of dye-CTP (Cy3.5-dCTP) and dCTP. Three enzyme preparations ΔTts, ΔTtsFY, ΔTtsF412YD426R were analyzed in this experiment.
In FIG. 7, Globin mRNA served as the template. A 5′ P-33 labeled primer (DNA 25-mer) was annealed to the template. Reactions were performed with varying concentrations of either Cy3.5-dCTP or dCTP alone. Inclusion of only one dNTP allowed incorporation of the next correct nucleotide alone. The sequence of the template-primer that allowed for the examination of single nucleotide “C” incorporation is shown below.
Lanes 1,2,3 and 4 contain 20, 2, 0.2, and 0.02 uM of dNTP or dye-dNTP. Lane with no label has no enzyme, to show the integrity of the starting P-33 labeled primer. Quantification of the single nucleotide extension product is one way to tell if DR change to in the enzyme led to any consequence. “P” indicates a radio labeled primer. “P+1” represents the elongated product by a single nucleotide or nucleotide analog. P+1 migrates slowly with the dye-dNTP conjugate. Note that the migration of Cy3.5 dCMP containing bands travel slowly on the gel compared to dCTP extended products. […] Essentially, incorporation is achieved at lower concentrations (less than 10 times) of dye-dNTP compared to that of the wild type polymerase. It is evident that the DR enzyme was able to incorporate Cy3.5 dCTP at concentrations as low as 0.2 uM (Cy3.5 dCTP) or even lower. […] In this experiment the template-primer is a mRNA annealed to radio labeled primer. Extension is monitored qualitatively as P+1 for the natural nucleotides and P+1* for dye labeled nucleotide. This is a promising first observation for potential use in microarray applications for cDNA probe labeling.

[3] = tested on: human skeletal muscle mRNA; test: cDNA labeling using Cy3 and Cy5-dCTP, microarray (FIG. 9); conditions: Cy3-dCTP or Cy5-dCTP, 50 degrees C.
Procedure: (§2) A typical 20 μl reaction Cy3 or Cy5 reaction had 1 μg of human skeletal muscle mRNA, oligo dT(25) and random nonamer primers and TtsFYDR polymerase enzyme in 1×reaction buffer (50 mM Tris, pH 8.0, 1 mM DDT, 40 mM KC, 100 uM dA,G and TTP and 50 um each of CTP and Cy3-dCTP or Cy5-dCTP depending on the reaction). Control mRNAs (APBiotech Inc.) of known sequence compositions were included in various concentrations to serve as dynamic range and gene expression ratio controls. Tts reactions were carried out at temperatures from 50 degrees C. Template RNA was hydrolyzed by alkali treatment and neutralized with HEPES.
(§3) Probes were purified using MultiScreen filters (Millipore) and quantified by spectrophotometry. Glass slides containing human cDNA gene targets were hybridized with equal amounts (30 pmol each) of Cy3 and Cy5 labeled cDNA probes. Slides were scanned using a GenePix® (Axon) scanner and quantified using ImageQuant software.

[4] = tested on: human skeletal muscle mRNA; test: cDNA labeling using Cy3 and Cy5-dUTP, microarray (FIG. 10); conditions: Cy3-dUTP or Cy5-dUTP, 50 degrees C.
Procedure: as §2, with “CTP” for “TTP”, “TTP” for “CTP”, “Cy3-dUTP” for “Cy3-dCTP”, “Cy5-dUTP” for “Cy5-dCTP”
as §3

[5] = tested on: defined DNA template-DNA primer; test: Single nucleotide incorporation of dye-dCTP during DNA dependent DNA synthesis (FIG. 13)
Procedure: as §1
Primer extension was monitored using a defined DNA template-DNA primer.
In this experiment the relative efficiencies of incorporation of dye-CTP (Cy3.5-dCTP) was investigated. Three enzyme preparations were tested ΔTts, ΔTtsF412Y, and ΔTtsF412YD426R
Defined DNA shown below served as the template. A P-33 labeled primer (DNA 25 mer) was annealed to the template. Reactions were performed with varying concentrations of either Cy3.5-dCTP or dCTP alone. Inclusion of only one dNTP allowed incorporation of the next correct nucleotide alone. The sequence of the template-primer that allowed for the examination of single nucleotide “C” incorporation is shown below.
Lanes 1, 2, 3, 4 and 5 contain 20, 2, 0.2, 0.02 and 0 uM dye-dCTP. Lane 5 has no enzyme, to show the integrity of the starting p-33 labeled primer. Quantification of the single nucleotide extension product is one way to tell if DR change in the enzyme led to any consequence. “P” indicates a radio labeled primer. “P+1” represents the elongated product by a single nucleotide or nucleotide analog. P+1 migrates slowly with the dye-dNTP conjugate. Note that the migration of Cy3.5-dCTP containing band travel slowly on the gel compared to dCMP extended products. […] P+1 product is achieved between 10-100 fold less concentration of dye-dCTP with the enzyme having the DR change. Essentially, incorporation is achieved at a much lower concentration of dye-dNMP compared to the wild type enzyme. It is evident that the DR enzyme was able to incorporate Cy3.5-dCTP at concentrations as low as 0.2 uM or even lower.

B1: ΔTtsF412YD426R: exonuclease deficient truncated Tts DNA polymerase I with F412Y and D426R changes (SEQ ID No. 7) (protein, listed as Thermoanaerobacter thermohydrosulfuricus)
chain: MYKFLIIDGSSLMYRAYYALPMLTTSEGLPTNALYGFTMMLIKLIEEEKPDYIAIAFDKKAPTFRHKEYQDYKATRQAMPEELAEQVDYLKEIIDGFNIKTLELEGYEADDIIGTISKLAEEKGMEVLVVTGDRDALQLVSDKVKIKISKKGITQMEEFDEKAILERYGITPQQFIDLKGLMGDKSDNIPGVPNIGEKTAIKLLKDFGTIENLIQNLSQLKGKIKENIENNKELAIMSKRLATIKRDIPIEIDFEEYKVKKFNEEKLLELFNKLEFFSLIDNIKKESSIEIVDNHKVEKWSKVDIKELVTLLQDNRNIAFYPLIYEGEIKKIAFSFGKDTVYIDVFQTEDLKEIFEKEDFEFTTHEIKDFLVRLSYKGIECKSKYIDTAVMAYLLNPSESNYDLDRVLKKYLKVDVPSYEGIFGKGRDKKKIEEIDENILADYICSRCVYLFDLKEKLMNFIEEMDMKKLLLEIEMPLVEVLKSMEVSGFTLDKEVLKELSQKIDDRIGEILDKIYKEAGYQFNVNSPKQLSEFLFEKLNLPVIKKTKTGYSTDSEVLEQLVPYNDIVSDIIEYRQLTKLKSTYIDGFLPLMDENNRVHSNFKQMVTATGRISSTEPNLQNIPIREEFGRQIRRAFIPRSRDGYIVSADYSQIELRVLAHVSGDEKLIESFMNNEDIHLRTASEVFKVPMEKVTPEMRRAAKAVNYGIIYGISDYGLSRRLKISRKEAKEYINNYFERYKGVKDYIEKIVRFAKENGYVTTIMNRRRYIPEINSRNFTQRSQAERLAMNAPIQGSAADIIKMAMVKVYNDLKKLKLKSKLILQVHDELVVDTYKDEVDIIKKILKENMENVVQLKVPLVVEIGVGPNWFLAK
normalized observed ratios of Cy3/Cy5 signal versus target ratios [1]: very close to the target ratios | concentration of Cy3.5 dCTP at which the enzyme was able to incorporate ([2]; 10 min single nucleotide incorporation): ≤ 0.2 µM | fold less concentration of dCTP at which P+1 product is achieved ([2]; dCTP, compared with enzymes without the DR change): 10-100 fold | lower concentration of dye-dNTP at which incorporation is achieved compared to wild type polymerase ([2]; dye-CTP (Cy3.5-dCTP)): less than 10 times | incorporation of Cy3 versus Cy5 in cDNA probes [3]: near even incorporation of Cy3 and Cy5 | incorporation of Cy3 versus Cy5 in cDNA probes [4]: near even incorporation of Cy3 and Cy5 | concentration of Cy3.5-dCTP at which the enzyme was able to incorporate [5]: ≤ 0.2 µM | fold less concentration of dye-dCTP at which P+1 product is achieved ([5]; dye-dCTP, compared with enzymes without the DR change): 10-100 fold
